Experimental data reported in paper PMC8996150, “The structure of Synechococcus elongatus enolase reveals key aspects of phosphoenolpyruvate binding” (Acta Crystallographica. Section F, Structural Biology …, 2022).

Substrate: O=C(O)[C@@H](CO)OP(=O)(O)O
Test: purified protein
Assay type: biochemical, Synechococcus elongatus
Conditions: 100 mM HEPES pH 8.0, 100 mM KCl, 1.0 mM MgCl2, 30°C, dehydration direction

B1: SeEN (Synechococcus elongatus enolase) (Synechococcus elongatus PCC 7942 = FACHB-805) (protein)
chain: MPDDYGTQIAEITAREILDSRGRPTVEAEVHLEDGSVGLAQVPSGASTGTFEAHELRDDDPSRYGGKGVQKAVENVSAIEDALIGLSALDQEGLDKAMIALDGTPNKKNLGANAILAVSLATAHAAATSLNLPLYRYLGGPLANVLPVPMMNVINGGAHADNNVDFQEFMIMPVGAPSFKEALRWGAEVFHALAKVLKDKGLATGVGDEGGFAPNLGSNKEALELLLTAIEAAGYKPGEQVALAMDVASSEFYKNGLYTCDGVSHEPAGMIGILADLVSQYPIVSIEDGLQEDDWSNWKTLTQQLGSTVQLVGDDLFVTNPDRLQSGIEQGVGNAVLIKLNQIGTLTETLRTIDLATRSGYRSVISHRSGETEDTTIADLAVATRAGQIKTGSLSRSERIAKYNRLLRIEAALGENALYAGAIGLGPKGR
notes: full length, synthetic codon-optimized gene in pET-42a(+), C-terminal … (8xHis) tag kept, E. coli Arctic Express (DE3); mainly monomer in gel filtration, dimer in PEP crystal, octamer predicted
B1 showed a Km of 61 ± 4 µM, a kcat of 7.4 ± 0.1 s⁻¹ and a kcat/Km of 120000 M⁻¹ s⁻¹.
